Literature values, collected in US20030103959A1, “Methods of providing neuroprotection and/or neurorestoration via the neural activin type IIB receptor” (priority 2001, published 2003).

System: quinolinic acid (QA) rat lesion model of Huntington's Disease
Conditions: Hughes et al. 1999

B1: recombinant human (rh) activin-A: member of the TGF-β superfamily; 28 kDa disulphide-linked homodimer of two βA subunits (protein, UniProt P08476 311-426, looked up)
Inhibin beta A chain: GLECDGKVNICCKKQFFVSFKDIGWNDWIIAPSGYHANYCEGECPSHIAGTSGSSLSFHSTVINHYRMRGHSPFANLKSCCVPTKLRPMSMLYYDDGQNIIKKDIQNMIVEECGCS
neurotrophic effects after administration: potent neurotrophic effects
